Assay results published in the DeepSol protein solubility set.

Experiment: soluble on expression in E. coli; label from the status in PepcDB or PDB records

Row | Sequence | soluble on expression in E. coli
1 | MGSDKIHHHHHHDNAGRVVEITSAPERVVSLSPAATRFLVFLGLEDKIVGVTDYDSYEAEKVGAMVPVNIEKVVSLNPDLVLMFGGFQLPEVPKLEKAGLKVLVVNPNSLNDIIRDVVLLGTIFDRRDLALEKSEKLREKMLEIGKKTYNVPPSKRPKVLYLISSPGPDVKEIWTCGMGSYLNEIISLAGGVNIASGIAGPNGWPQLSIEYVVSQNPDVIIVGVYIPGTENEEIKKILNFEPFKEINAVKNKRVFAVDGNVASQPSPDVFELLDLFYEFFYGGKGE | not soluble
2 | MAEVHVRELKGWEEMEEVVALQREVWGRAESDLVPRGLLVAVQDEGGLVAGAFAEGRMVGFVFGFPTKDPALHHSHMLGVLEAYRGTGAALLLKRFQRDWCLARGVRRVVWTFDPMRGVNANFNLRKLGATAKTYLPDHYGPMSGINAGAPSDRLLAEWDL | not soluble
3 | MLKLARPFIPPLSRNNAISSGIVLTSRRFQSSFTFLSNQSLLSKNQMKSKRKKGSKKAAYHRQPPEHEHTAPLIKQNKTITKKEHSDVRGSHLKKKRSDFSWLPRVPSTSHLKQSDMTTNVLYSGYRPLFINPNDPKLKEDTGSTLYEFAMKLEDLNEPLSPWISSATGLEFFSEWENIPSELLKNLKPFHPPKEKSMNTNELIHVSAKRNTLVDNKTSETLQRKMDEFSKRRGKGRKKSVVTLLQMKKKLEG | not soluble
4 | DKREYFVYLPPTYGKGDNHYSVIYMQDGDIVIKILNELMDLIENKSKKDVYDESIIVGVKPIVRNDDYTPWEAEAISKGSSEFGGRGDIYLNFLIKKLKPYIDNKYRTKKEKN | not soluble
5 | MREWINQSKIDLLAKEIGEENVPILVNIFLGELNDYQSKLVSDTVADKLGYLKEISHALKSSAASFGADRLCAKAVELDSRAKSGEMMDISLEVEHMLELLKQTHQCYSDLVH | not soluble
6 | MGSDKIHHHHHHMLSIAIAAEFELSEKIVETLEQTQLEIESLTIIEIKPFKEEQGIRFNNKAVVQIMPEEADWTEFNYVLFAGTIEHVDLLAKIADSGCIVIDVLGICASLANIPVVVPGINDDQLIELRQRNIVSLPNPQVTQCALAISNIVNSIHQLVVTSLLPASYVEAEQVAKLAGQTAQLLNGIPLDTEQQRLAFDVFPVQTQNLVIQLQKIYPQLENIVFHQIQVPVFYGMGQFVTALSDYLVDIESQLHFWQENELIQYHAEKLITPVTHGENENNEEKVKLHISTLSAAENKIEFWSVADEQHFNLALMAVKLLELIG | not soluble
7 | LTETGALFKLEVALLKDKVTLTLDTTGPSLFKRGYRIEKGGAPLKENMAAALVMLTNWRKDRPFYDPVCGSGTICIEAALIGHNIAPGFNRSFTCETWDWVDPAIFEKVRNEAEAKADYDVELDICGSDVDGRMIEVARANAEEVGLGDSITFKQLALKDFTTEKEYGVMVANPPYGERLGEEESVRRLYKEMGHVFRPLTTWSKYILTSDLAFEEYYGAKATKKRKLYNGALRTDLFQYWGTRPPRKPRED | not soluble
8 | MGSDKIHHHHHHVVTPEDSPRYPYGNCLYVEDDIPAVLDLGAGGRAFQEIPCEKVQLALISHSHFDHLHGDSFFPRAGLYAGKEESKTYSDENEYLKFHGYELWAEMMPGIKRVAFSEVKPLPDDVPVKPGFRYIPLAGIFKDMERFQLGKTEITAIHLPGHTTGHYGFWIEKEGILFSGDMDLVVAGPWYSSNSADIGQLVSSVQRIREINPGLIVPSHRRLIFDKIEKRLDQYIGVVFKRQERILDLLKEAHTIDELLEYQMVFHGRRDIYLLFWEKMTLRNHIRFLLWEGMVEEVEKGRYKRC | not soluble
9 | MSFDADEEILQDFLVEAGEILEQLSEQLVELESRPDDMDLLNAIFRGFHTVKGGAGFLQLNALVECCHIAENVFDILRKGERRVSSELMDVVLQALDTVNAMFDQVREQSEPTPATPELLAALARLAEPEGAEPAEPVQAPPAAVPPAEPAAPPEAPAQSASSDITDDEFEQLLDALQGDEAPASAVAEAPAAPAGDEISDAEFEALLDQLHGKGKFVPPAVSAEPAQVPAEAVEPAAAAAGDDISDDEFEALLDELHGKGKFGDVPEAAGTPAAPAAAAPAAAPAEQGKAPAAAGGDEISDDEFESLLDELHGKGKFNGASEAVAAAAAVAKNIAAKSPAAKPVAPAKAAAARPAAPDRPAASEAETTVRVDTARLDEIMNMVGELVLVRNRLVRLGLNSGDEAMAKAVANLDVVTGDLQMSVMKTRMQPIKKVFGRFPRLVRDLARNMKKEINLELVGEETDLDKNLVEALADPLVHLVRNAVDHGIESPEEREAAGKPRVGQVVLSAEQEGDHILLMITDDGKGMDAEVLRNKAVEKGLLERDAADRLTDLECYNLIFAPGFSTKTEISDVSGRGVGMDVVKTKISQLNGTVNVFSQKGSGSKIVIKVPLTLAIMPTLMVMLGSQAFAFPLVNVNEIFHLDLSRTNVVDGQEVVIVRDKALPLFYLKRWLVPSAAHEEQGEGHVVILSVGTQRIGFVVDQLVGQEEVVIKPLGKMLQGTPGMAGATITGDGRIALILDVPSMLKRYARRI | not soluble
10 | MAKKKNVSVISVEKPTWFPLTDETGAFPVYGAPITIGTAVSIKPDVTTETTPDYGDSVVQDQYVAFGGAEVTLETNGYQNEVLAEITGGKKLKGGVLRSADDIASDGAFAYRRRKSNGKYRYTIFYKGKFALTSDETSTLEGSSVSYTHPEWTGSFVDVPGLGYMYSVDEDDEGVDLEMIKNWFTEVMDPRKENTTAVTGVTLDQTELNLKVGQTATLTPTITPDNASNKKYQFRSESEAIGTVTPIQGKVTAVGEGTTEIVVTTEDGNFTAKCTLNVTTAD | not soluble
11 | IVKASTYMGKRRIGALISMERETGMTDYVETGIPMNANLTSELLINTFIPNTPLHDGAVIINNDTILAAACYLPLSENPFISKELGTRHRAALGVSEVTDCLTIVVSEETGHISLTKNGE | soluble
12 | MATPTFDTIEAQASYGIGLQVGQQLSESGLEGLLPEALVAGIADALEGKHPAVPVDVVHRALREIHERADAVRRERFKAMAAEGVKYLEENREKDGVNSTESGLQFRVLTQGEGAIPARTDRVRVHYTGKLIDGTVFDSSVARGEPAEFPVNGVIAGWIEALTLMPVGSKWELTIPQELAYGERGAGASIPPFSTLVFEVELLEIL | not soluble
13 | MGSDKIHHHHHHVKIILRKIRTLVTHPGFRANPIAVLGRCAALLGRVALGRPFVFSLTPAGERLRVDANLRYTTVTTFVMRDHLEPELHYLAHLLAPGDTFIDIGANVGVYSLRAATLVGAAGRVIAVEPGRDALTALRANLALNPGRTITVVAAALSDHIGTATLYHVGNGYDPQAFSLLSDETAKDAETVPLTTLDAVCADLAIDRLDCLKMDAEGVEPMVLAGGRATLERFHPAVILEMNTAILERRGSPTDQAWTFLAGLGYGFHRILGGRPVRLTAPPDDFCNVIATHPANEKIG | not soluble
14 | MTLFDRKTFDRVLGEWPGVRFVDQWDSHVAKVGDKVFAVLGEREDWRLVVKCSEESFEILTSLEGIAQAPYFAKRKWISIGDHSPLEQEELEHYVRRSYELVAAGLTKKLRGELGIVIDNAPRL | soluble
15 | MANPKLPGISESEQALLYAKLNEYNRGRASFKEAGVYLVVLPRPGKPNYSLWLYSPLPEKQSILYIHDLSPDINESLRIASTMFYYSRRCLILMDYNEKRMQSNGDDLIFFGKYRGHFLHEILKVDPAYLSWIAYKFTPKIPKQERFVKIAQAYHSVHLDVMLRKSKEVRRKSRYLGEVNEKLTDLKLKVMRVRLEDDPYKTRVYGTTPQFFVKQILTLNDASGNLVTMSIPSKTPSTVSCTLSGIEHEYRPGEIIYVASARVSRLFESYGSKYTRLSNVKLAIVNAWSSRL | not soluble
16 | MKINNGPVLCPHCGCLSAYYEIDRLAAIREKVNKEGGSAAWDSTLQAHKKKAFCLMCHKSIDEVVIGQSDAPESTK | not soluble
17 | MGSDKIHHHHHHMKEINLASVLVAKRREKGITQDELAAYIGVSKASVSKWETGQSYPDITFLPLLAAYFNISIDELMSYSPQMERSDIAKLYTRLAADFASRPFEDVIAECAALIKKYYSCFPLLVQLVKLYTNHFMLAGTQERQEALLNETVTLCERIQAESGDVQLAKEAVSYQALCSLALQRPQQVLDLLGEGIRPMLPEGMLIAQAYQVMGNIGKAKETLQTELYQYVMVAFQGLLNVLQMATDHFEKAEEAFLRASDLAQIFNMKQLNPNNVILLYALGARMYCANNSHAKAIELLGNYVDTCVGGFFPFELHGDAFFDLIDPWLKDCGAAAPRSEQVIKESMLRDVLMNPAFASLQDDPGYRRLVQKMERFIGR | not soluble
